Earlier results as cited in article PMC4072998.

Tests used:
Glu14 [1] = biological target: T1, Glu14 (UniProt position 14, GAILAEVIGTT); assay: kinetics; conditions: pre-equilibrium; free protein binding substrate
Glu14 [2] = biological target: T1, Glu14; assay: other
Asp14 = Asp14 (UniProt position 14, GAILADVIGTT); assay: kinetics; conditions: pre-equilibrium; free protein binding substrate

| Substance | pKa (Glu14 [1]) | pKa (Glu14 [2]; equilibrium, substrate-induced deprotonation) | pKa (Glu14 [2]; substrate-free protein competing for H+ versus TPP+) | pKa (Asp14) |
| --- | --- | --- | --- | --- |
| EmrE (small multidrug resistance transporter) (Escherichia coli) | ~7.3 | 8.3-8.5 | 7-8 | – |
| EmrE E14D mutant (Escherichia coli; E14D) | – | – | – | 5.8 |
